Reference: PMC6297234, “aPKC controls endothelial growth by modulating c-Myc via FoxO1 DNA-binding ability”

Biological target: GST-FoxO1 DBD S218D (Homo sapiens, UniProt Q12778 151-266, S218D)
Experiment: EMSA; 1 µM protein, 1 nM DNA, 1 ng/mL poly dI-dC; 20 mM Tris pH 8.0, 50 mM KCl, 5% glycerol, 2 mM DTT, 0.2 mM EDTA, 2 mM MgCl2, 0.1 mg/mL BSA, 1 ng/mL poly dI-dC; RT 30 min; 6% gel in 0.5X TBE at 4 °C
Details: protein: recombinant; tags: GST (pDEST15, N-terminal); blunt

Chain of GST-FoxO1 DBD S218D (Q12778 151-266 S218D): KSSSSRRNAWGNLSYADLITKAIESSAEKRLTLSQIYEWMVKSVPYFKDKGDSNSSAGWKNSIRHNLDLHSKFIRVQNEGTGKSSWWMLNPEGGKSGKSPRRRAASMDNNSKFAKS

B1: FoxO DBE duplex (dsDNA)
DNA 1: CAAAATGTAAACAAGA
DNA 2: TCTTGTTTACATTTTG
binding result: no binding
